Assay results as given in the supplement of paper PMC10724198.
± gives the standard deviation of the averaged measurements.

System: Saccharomyces cerevisiae
Experiment: protein stability index of tFT-peptide fusion (C-terminal peptide) (PSI (0-1 scale)); higher = more stable (slower turnover)
Details: genetic background: wild type; temperature: 30 C
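Further: PSI is a weighted mean of sequencing reads over stability bins, variants kept only with over 10 reads, mCherry proximal and sfGFP distal, peptide attached via GGGS linker.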

Row | Sequence | protein stability index
1 | SLPLLPHLPASP | 0.698 ± 0.17
2 | SLPLPPLPYSRT | 0.732 ± 0.083
3 | SLPLPPPVRPLL | 0.689 ± 0.047
4 | SLPPLPSPPCPP | 0.712 ± 0.044
5 | SLPPPLPPPAPP | 0.614 ± 0.04
6 | SLPPPPAPPPAI | 0.706 ± 0.086
7 | SLPPPPARAAIL | 0.668 ± 0.07
8 | SLPPPSPLPPPV | 0.558 ± 0.018
9 | SLPRLRSCPSSF | 0.774 ± 0.18
10 | SLPRPASYPPRF | 0.652 ± 0.079
11 | SLPSHPLPDPSR | 0.67 ± 0.018
12 | SLPYPFSLLPSL | 0.739 ± 0.03
13 | SLRGIVFQSPSP | 0.737 ± 0.025
14 | SLRNSFPPLSSP | 0.651 ± 0.07
15 | SLRTREGSSRRE | 0.674 ± 0.23
16 | SLSLHALPRPTT | 0.655 ± 0.029
17 | SLSLPSSVIVGS | 0.624 ± 0.089
18 | SLSLVSLSPSFS | 0.694 ± 0.0096
19 | SLSLYSSTSLLP | 0.694 ± 0.064
20 | SLSRLVGPLVSS | 0.611 ± 0.0066
21 | SLSVMSAPLVGI | 0.636 ± 0.056
22 | SLSVPYPPGLLP | 0.7119 ± 0.0022
23 | SLSWIGLYCCGL | 0.717 ± 0.051

Row | Sequence | protein stability index
24 | SLTGYAGESIRF | 0.774 ± 0.056
25 | SLVGFLPLWPSS | 0.64 ± 0.0085
26 | SLVNDLFFLFFY | 0.523 ± 0.069
27 | SLVTGRGFKVYR | 0.681 ± 0.05
28 | SLVWVVSDLGCG | 0.778 ± 0.11
29 | SLYQPLSPTPPE | 0.74 ± 0.064
30 | SMCASRMPVCFS | 0.767 ± 0.18
31 | SMGSGCTPSMVS | 0.654 ± 0.11
32 | SMNCTSLRPGSF | 0.7065 ± 0.0015
33 | SMSPAGARCLPR | 0.782 ± 0.05
34 | SNAGRRRTNRIP | 0.682 ± 0.03
35 | SNAIPGSHLCRS | 0.719 ± 0.093
36 | SNFCIWRWWLGF | 0.6858 ± 0.0014
37 | SNFKKRKERFGR | 0.7048 ± 0.0063
38 | SNGFYVSRPIVY | 0.769 ± 0.017
39 | SNGGCIMSNIYS | 0.758 ± 0.059
40 | SNHPPLSFHTGR | 0.734 ± 0.0084
41 | SNKATNEGNVNV | 0.68 ± 0.025
42 | SNPKLPYSGTLE | 0.6685 ± 0.0015
43 | SNVHDEVLWTRA | 0.704 ± 0.011
44 | SPADALPLPGCG | 0.707 ± 0.05
45 | SPAFPPPPGFPP | 0.69 ± 0.04
46 | SPAKRLFRFPSS | 0.729 ± 0.05

Row | Sequence | protein stability index
47 | SPALLAPPFSPS | 0.68455 ± 0.00067
48 | SPAPSFLPLTPS | 0.656 ± 0.014
49 | SPARLPPLPSLS | 0.734 ± 0.038
50 | SPASPLDPSSSS | 0.712 ± 0.037
51 | SPFLINTIFDIT | 0.606 ± 0.038
52 | SPGLLPPPTSAF | 0.71 ± 0.017
53 | SPGPPLPSLTLP | 0.738 ± 0.065
54 | SPGPVTPRPSLR | 0.669 ± 0.019
55 | SPGSPLSPPAPP | 0.62 ± 0.04
56 | SPHPRKTTSHPR | 0.6642 ± 0.0015
57 | SPHTRPDPPPLP | 0.681 ± 0.071
58 | SPKCIVASFVVS | 0.675 ± 0.028
59 | SPLALATPLSDP | 0.699 ± 0.039
60 | SPLASAVPFLIV | 0.633 ± 0.045
61 | SPLPPPPPSSSS | 0.661 ± 0.016
62 | SPLPPPPSRPPR | 0.794 ± 0.032
63 | SPLPPTPPPISP | 0.6721 ± 0.00083
64 | SPLYCGLSLPSV | 0.664 ± 0.027
65 | SPNSCSVDYFAT | 0.61 ± 0.055
66 | SPPESTFAFLRP | 0.706 ± 0.037
67 | SPPFLLPFFPTP | 0.68 ± 0.043
68 | SPPHASPPVLPW | 0.72 ± 0.028
69 | SPPHLPPPLLST | 0.645 ± 0.06

Row | Sequence | protein stability index
70 | SPPLPPPVPTAP | 0.7095 ± 0.0056
71 | SPPLPPVLSRSH | 0.741 ± 0.043
72 | SPPLSPPLPSRP | 0.7016 ± 0.0064
73 | SPPLSRSPPPTL | 0.674 ± 0.039
74 | SPPPFLCSPFVA | 0.684 ± 0.024
75 | SPPPGHPPLVPN | 0.767 ± 0.013
76 | SPPPHSARPPRP | 0.686 ± 0.012
77 | SPPPLPTAPPPL | 0.713 ± 0.066
78 | SPPPPLLPHPTP | 0.723 ± 0.047
79 | SPPPPPPARCPS | 0.592 ± 0.045
80 | SPPPPPPPHSPD | 0.654 ± 0.071
81 | SPPPPPPSPPLH | 0.727 ± 0.044
82 | SPPPPPTSPPPY | 0.638 ± 0.0091
83 | SPPPPRPRPCAI | 0.753 ± 0.12
84 | SPPRSCLPRPPD | 0.676 ± 0.05
85 | SPPRSPPTFPPC | 0.704 ± 0.063
86 | SPPSFIVPSTSL | 0.69 ± 0.054
87 | SPPSPASPPSSP | 0.741 ± 0.075
88 | SPPSPPPSPPTL | 0.77 ± 0.092
89 | SPPSPSPSPRPL | 0.669 ± 0.03
90 | SPPVPLSPPLSP | 0.537 ± 0.023
91 | SPRIDFLLPCSS | 0.647 ± 0.032
92 | SPRLPLSRPLVV | 0.574 ± 0.0064

Row | Sequence | protein stability index
93 | SPRLPPPRPLPS | 0.676 ± 0.057
94 | SPRPSPPPPSHA | 0.636 ± 0.077
95 | SPRRVAVAGETS | 0.68 ± 0.093
96 | SPSLPHAPSRPP | 0.607 ± 0.06
97 | SPSNPSLRLSSP | 0.676 ± 0.023
98 | SPSPPPPPPPPL | 0.6877 ± 0.0022
99 | SPSPPPRTPPPL | 0.689 ± 0.022
100 | SPSSLPPTLPTL | 0.711 ± 0.021
101 | SPTDSDINIPRV | 0.714 ± 0.05
102 | SPTGTPIIPSYP | 0.684 ± 0.0098
103 | SPTPPPTSPSRP | 0.728 ± 0.11
104 | SPVSPPLVRPPY | 0.642 ± 0.054
105 | SQFLRPSAVAPS | 0.642 ± 0.037
106 | SQGLWRGVALTG | 0.7325 ± 0.0017
107 | SQHTNTKTKLKK | 0.706 ± 0.043
108 | SQKWKGSSVIIG | 0.723 ± 0.032
109 | SQLGRPSLHPVR | 0.6601 ± 0.0024
110 | SQRPPPLCDFTD | 0.723 ± 0.013
111 | SQTRIKPREETA | 0.653 ± 0.031
112 | SRAGAVLSGIES | 0.669 ± 0.013
113 | SRDRRASPPLPP | 0.722 ± 0.049
114 | SRDSRSSRRAGA | 0.702 ± 0.065
115 | SRESTPDSHTMS | 0.726 ± 0.065

Row | Sequence | protein stability index
116 | SRFHVLLPPPPS | 0.674 ± 0.035
117 | SRFSRAVSVARV | 0.666 ± 0.023
118 | SRGGGEGTVGKK | 0.697 ± 0.022
119 | SRGGGWSEGGEG | 0.716 ± 0.028
120 | SRGLPAPASRYC | 0.713 ± 0.015
121 | SRHPPPPVSPHP | 0.727 ± 0.064
122 | SRHPSFPLPMPL | 0.746 ± 0.086
123 | SRHRAVRAGENW | 0.708 ± 0.045
124 | SRISSCSLVRPP | 0.679 ± 0.032
125 | SRKNGLQRKQKT | 0.7277 ± 0.0055
126 | SRLLLPIGISRV | 0.543 ± 0.16
127 | SRLNRRKGNGRK | 0.656 ± 0.083
128 | SRLSPSPLPPFL | 0.667 ± 0.023
129 | SRNAFTLAARVY | 0.589 ± 0.016
130 | SRPALLLGSEAT | 0.642 ± 0.031
131 | SRPATGSVTFPP | 0.694 ± 0.0098
132 | SRPPHPSPPRTF | 0.675 ± 0.03
133 | SRPPSSQSNDEL | 0.66 ± 0.078
134 | SRQPPPRVFCVV | 0.571 ± 0.035
135 | SRRKMRILQIVD | 0.623 ± 0.092
136 | SRRNRIYSHTSS | 0.666 ± 0.025
137 | SRSGLSPTLPVF | 0.699 ± 0.016
138 | SRSGPGEIVTTG | 0.688 ± 0.041

Row | Sequence | protein stability index
139 | SRSPLCRCAPSF | 0.6534 ± 0.0043
140 | SRSPPVLTRHKL | 0.824 ± 0.058
141 | SRVVAGLWRGAV | 0.671 ± 0.18
142 | SRWLLSLFTSSF | 0.762 ± 0.052
143 | SRYRPTGAHYGH | 0.714 ± 0.064
144 | SSAGEVAFVAGT | 0.689 ± 0.089
145 | SSAPPPPPRPLP | 0.588 ± 0.052
146 | SSFPPAPHAPHD | 0.739 ± 0.03
147 | SSFRASVRSRKT | 0.692 ± 0.022
148 | SSFSAPPMPRSF | 0.653 ± 0.028
149 | SSGNSVDCFGHQ | 0.6959 ± 0.0057
150 | SSHLILTVAPSA | 0.6515 ± 0.0045
151 | SSHPMNQVIKDR | 0.659 ± 0.13
152 | SSKGGWSGGGSV | 0.71 ± 0.025
153 | SSLAPLLYLDTP | 0.661 ± 0.084
154 | SSLRPSRPPPAS | 0.6988 ± 0.0057
155 | SSLSPLLYRPLF | 0.742 ± 0.047
156 | SSLSPTPPPSFP | 0.84 ± 0.2
157 | SSPAPPPLLLPS | 0.7047 ± 0.00088
158 | SSPIFPDPSHVS | 0.6058 ± 0.0054
159 | SSPLSSPLSTAP | 0.622 ± 0.018
160 | SSPLVHWFSYLS | 0.682 ± 0.023
